Experimental data reported in article PMC8894342, “Humanization of a strategic CD3 epitope enables evaluation of clinical T-cell engagers in a fully immunocompetent in vivo model” (Scientific Reports, 2022).
Positions count from the first letter of the chain named. Each block holds one binder with its values, some of them ahead of it.

How the values were obtained:
Assay in all cases: SPR; Fc-tagged CD3E/D variants captured on a C1 chip by amine-coupled anti-human Fc or anti-murine Fc pAb; concentration series of Fab; HBS pH 7.4, 0.05% Tween-20, 1 g/L BSA, 37 °C; 1:1 Langmuir model with mass transport
Conditions in all cases: both partners purified
[1] = biological target: T1, chimeric human/murine CD3E - murine CD3D Fc-tagged heterodimer (Mus musculus CD3E/D with human CD3E …, UniProt P07766;P22646;P04235, chimera)
T1 construct: CD3 epsilon, mouse, with a 5-residue N-terminal stretch replaced by an 11-residue stretch of human CD3E; CD3 delta, mouse; also called Chimeric human/murine CD3E/D; h/mCD3E-mCD3D; source: Expi293, transiently co-expressed, purified (MabSelect Sure LX, Superdex 200)

[2] = biological target: T2, Fc-tagged murine CD3E/D heterodimer (Mus musculus, UniProt P22646;P04235)
T2 construct: CD3 epsilon, mouse; CD3 delta, mouse; also called mCD3E/D; source: Expi293, transiently co-expressed, purified (MabSelect Sure LX, Superdex 200)

[3] = biological target: T3, Fc-tagged cyno CD3E/D heterodimer (Macaca fascicularis, UniProt Q95LI5;Q95LI8)
T3 construct: CD3 epsilon, cynomolgus monkey; CD3 delta, cynomolgus monkey; source: Expi293, transiently co-expressed, purified (MabSelect Sure LX, Superdex 200)

[4] = biological target: T4, Fc-tagged human CD3E/D heterodimer (Homo sapiens, UniProt P07766;P04234)
T4 construct: CD3 epsilon, human; CD3 delta, human; also called hCD3E/D; source: Expi293, transiently co-expressed, purified (MabSelect Sure LX, Superdex 200)
T4 sequence (P07766 23-207, chain 1 of 2): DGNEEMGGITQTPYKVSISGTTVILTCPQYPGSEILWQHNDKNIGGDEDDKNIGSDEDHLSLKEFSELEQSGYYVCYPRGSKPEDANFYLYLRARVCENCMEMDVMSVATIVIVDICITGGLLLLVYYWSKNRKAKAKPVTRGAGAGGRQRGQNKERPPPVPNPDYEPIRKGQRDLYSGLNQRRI
T4 sequence (P04234 22-171, chain 2 of 2): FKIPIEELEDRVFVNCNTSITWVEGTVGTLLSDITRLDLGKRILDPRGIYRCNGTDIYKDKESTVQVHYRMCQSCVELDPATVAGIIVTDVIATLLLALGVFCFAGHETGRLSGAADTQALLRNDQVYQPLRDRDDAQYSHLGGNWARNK

T2 sequence (P22646 22-189, chain 1 of 2): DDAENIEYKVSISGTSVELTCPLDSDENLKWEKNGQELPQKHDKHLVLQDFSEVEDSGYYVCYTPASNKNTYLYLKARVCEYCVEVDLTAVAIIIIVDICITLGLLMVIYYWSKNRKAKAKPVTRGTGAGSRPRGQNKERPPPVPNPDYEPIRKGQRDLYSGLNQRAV
T2 sequence (P04235 22-173, chain 2 of 2): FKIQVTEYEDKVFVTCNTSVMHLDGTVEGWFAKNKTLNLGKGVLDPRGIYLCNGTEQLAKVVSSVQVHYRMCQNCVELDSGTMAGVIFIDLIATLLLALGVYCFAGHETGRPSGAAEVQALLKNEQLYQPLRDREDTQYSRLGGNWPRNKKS
T1 sequence (P22646 22-189, stated change not applied, chain 1 of 2): as the sequence (P22646 22-189, chain 1 of 2) above
T1 sequence (P04235 22-173, stated change not applied, chain 2 of 2): as the sequence (P04235 22-173, chain 2 of 2) above
T3 sequence (Q95LI5 22-198, chain 1 of 2): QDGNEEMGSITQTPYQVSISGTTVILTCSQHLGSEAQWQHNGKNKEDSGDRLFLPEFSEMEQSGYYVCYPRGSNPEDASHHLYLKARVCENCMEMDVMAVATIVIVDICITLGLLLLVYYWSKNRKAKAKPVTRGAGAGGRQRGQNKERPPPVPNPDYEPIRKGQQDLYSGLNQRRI
T3 sequence (Q95LI8 22-171, chain 2 of 2): as the sequence (P04234 22-171, chain 2 of 2) above, with I5V, N15K, I20V, S32T, D33N, I34N, T64A, S74N, V83L, H141R counted along it

B3: hCD3.5 Fab (Fab, V domains shown)
VH: not shown
VL: QAVVTQEPSLTVSPGGTVTLTCGSSTGAVTTSNYANWVQEKPGQAFRGLIGGTNKRAPGTPARFSGSLLGGKAALTLSGAQPEDEAEYYCALWYSNLWVFGGGTKLTVL
notes: VH of hCD3.5; CH1 of the Fab; VL of hCD3.5; CL of the Fab; Anti-human CD3 arm of a clinical T-cell engager; cloned in pTT5 with an N-terminal osteonectin signal peptide; source: Expi293, transient, purified (Ni Sepharose excel, Superdex 200)
Kd [1]: 4.4 ± 0.27 nM | binding result [2]: no binding | Kd [3]: 5 ± 0.5 nM | Kd [4]: 4.1 ± 0.44 nM

B5: 2C11 Fab (Fab, V domains shown)
VH: EVQLVESGGGLVQPGKSLKLSCEASGFTFSGYGMHWVRQAPGRGLESVAYITSSSINIKYADAVKGRFTVSRDNAKNLLFLQMNILKSEDTAMYYCARFDWDKNYWGQGTMVTVSS
VL: DIQMTQSPSSLPASLGDRVTINCQASQDISNYLNWYQQKPGKAPKLLIYYTNKLADGVPSRFSGSGSGRDSSFTISSLESEDIGSYYCQQYYNYPWTFGPGTKLEIK
notes: VH of 2C11; CH1 of the Fab; VL of 2C11; CL of the Fab; Murine surrogate anti-CD3 clone; cloned in pTT5 with an N-terminal osteonectin signal peptide; also called m2C11; source: Expi293, transient, purified (Ni Sepharose excel, Superdex 200)
Kd [1]: 250 ± 16 nM | Kd [2]: 22 ± 1.4 nM | binding result [3]: no binding | binding result [4]: no binding

B6: hCD3.2 Fab (Fab, V domains shown)
VH: EVQLVESGGGLVQPGGSLRLSCAASGFTFNTYAMNWVRQAPGKGLEWVARIRSKYNNYATYYAASVKGRFTISRDDSKNSLYLQMNSLKTEDTAVYYCARHGNFGNSYVSWFAYWGQGTLVTVSS
VL: B3 VL with A2T, G23R, E40Q, F46P, A80V
notes: VH of hCD3.2; CH1 of the Fab; VL of hCD3.2; CL of the Fab; Anti-human CD3 arm of a clinical T-cell engager; cloned in pTT5 with an N-terminal osteonectin signal peptide; source: Expi293, transient, purified (Ni Sepharose excel, Superdex 200)
Kd [1]: 4.2 ± 0.22 nM | binding result [2]: no binding | Kd [3]: 3.8 ± 0.61 nM | Kd [4]: 3.1 ± 0.35 nM

Further lines, results first:

Kd [1]: 8.6 ± 0.53 nM | binding result [2]: no binding | Kd [3]: 6.5 ± 0.11 nM | Kd [4]: 6.3 ± 0.18 nM
B1: hCD3.1 Fab (Fab, V domains shown)
VH: EVQLVESGGGLVQPGGSLRLSCAASGFTFSDYYMTWVRQAPGKGLEWVAFIRNRARGYTSDHNPSVKGRFTISRDNAKNSLYLQMNSLRAEDTAVYYCARDRPSYYVLDYWGQGTTVTVSS
VL: DIVMTQSPDSLAVSLGERATINCKSSQSLFNVRSRKNYLAWYQQKPGQPPKLLISWASTRESGVPDRFSGSGSGTDFTLTISSLQAEDVAVYYCKQSYDLFTFGSGTKLEIK
notes: VH of hCD3.1; CH1 of the Fab; VL of hCD3.1; CL of the Fab; Anti-human CD3 arm of a clinical T-cell engager; cloned in pTT5 with an N-terminal osteonectin signal peptide; source: Expi293, transient, purified (Ni Sepharose excel, Superdex 200)

Kd [1]: 3.1 ± 0.23 nM | binding result [2]: no binding | Kd [3]: 2.7 ± 0.02 nM | Kd [4]: 2.7 ± 0.45 nM
B2: hCD3.4 Fab (Fab, V domains shown)
VH: QVQLVQSGAEVKKPGASVKVSCKASGFNIKDYYMHWVRQAPGQRLEWMGWIDLENGNTIYDPKFQGRVTITRDTSASTAYMELSSLRSEDTAVYYCARDGYGRYFYDVWGQGTLVTVSS
VL: B1 VL with F30L, V32S, S34T, R35G, S55Y, D99S, L100R, F101R, S105G, L109V
notes: VH of hCD3.4; CH1 of the Fab; VL of hCD3.4; CL of the Fab; Anti-human CD3 arm of a clinical T-cell engager; cloned in pTT5 with an N-terminal osteonectin signal peptide; source: Expi293, transient, purified (Ni Sepharose excel, Superdex 200)

Kd [1]: 7.3 ± 0.18 nM | binding result [2]: no binding | Kd [3]: 7.5 ± 0.06 nM | Kd [4]: 6.6 ± 0.46 nM
B4: SP34 Fab (Fab, V domains shown)
VH: EVQLVESGGGLVQPKGSLKLSCAASGFTFNTYAMNWVRQAPGKGLEWVARIRSKYNNYATYYADSVKDRFTISRDDSQSILYLQMNNLKTEDTAMYYCVRHGNFGNSYVSWFAYWGQGTLVTVSA
VL: QAVVTQESALTTSPGETVTLTCRSSTGAVTTSNYANWVQEKPDHLFTGLIGGTNKRAPGVPARFSGSLIGDKAALTITGAQTEDEAIYCALWYSNLWVFGGGTKLTVL
notes: VH of SP34; CH1 of the Fab; VL of SP34; CL of the Fab; Cyno cross-reactive anti-human CD3 clone; cloned in pTT5 with an N-terminal osteonectin signal peptide; source: Expi293, transient, purified (Ni Sepharose excel, Superdex 200)
